± gives the standard error. For part of these data: Fewer inactive variants are shown than the library holds.
B1: glmS ribozyme (parent)
chain: AUAAAAGCGCCAGAACUACAGAAAUGUAGUUGACGAGGAGGAGGUUUAUCGAAUUUUCGGCGGAUGCCUCCAAA

Tests used:
Details in all cases: with glucosamine-6-phosphate
glucosamine-6-phosphate [1] = variants of: B1; assay: kcat; higher = faster cleavage; RNA array
In short: (§1)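 Glucosamine-6-phosphate, from 40 μM to 10 mM in HEPES/KCl/Mg(OAc)2 buffer, was flowed over sequenced MiSeq chips carrying barcoded ribozyme variants transcribed in situ by E. coli RNA polymerase. A hybridised Cy3 probe tracked the variants at 37 °C as tiles were imaged over ~14 h. kobs, kcat and KM were obtained by fitting normalised per-tile medians to exponential decays and then applying weighted Michaelis–Menten fits across concentrations.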

glucosamine-6-phosphate [2] = variants of: B1; assay: KM; higher = weaker cofactor use; RNA array
In short: as §1

glucosamine-6-phosphate [3] = variants of: B1; assay: self-cleavage kobs at 160 uM GlcN6P; higher = faster cleavage; RNA array
In short: as §1

glucosamine-6-phosphate [4] = variants of: B1; assay: self-cleavage kobs at 640 uM GlcN6P; higher = faster cleavage; RNA array
In short: as §1

glucosamine-6-phosphate [5] = variants of: B1; assay: self-cleavage kobs at 2500 uM GlcN6P; higher = faster cleavage; RNA array
In short: as §1

glucosamine-6-phosphate [6] = variants of: B1; assay: self-cleavage kobs at 10000 uM GlcN6P; higher = faster cleavage; RNA array
In short: as §1

glucosamine-6-phosphate [7] = variants of: B1; assay: self-cleavage kobs at 40 uM GlcN6P; higher = faster cleavage; RNA array
In short: as §1

AUAAAAGCGCCAGAACUACAGAAAUGUAGUUGACGAGGAGGAGGUUUAGCGAAUGUUCGGCGGAUGCCUCCAAA
kcat (glucosamine-6-phosphate [1]): 0.000836 ± 7.3e-05 s⁻¹
KM (glucosamine-6-phosphate [2]): 1400 ± 250 µM
self-cleavage kobs at 160 uM GlcN6P (glucosamine-6-phosphate [3]): 8.7e-05 ± 1.8e-05 s⁻¹
self-cleavage kobs at 640 uM GlcN6P (glucosamine-6-phosphate [4]): 0.000247 ± 5e-05 s⁻¹
self-cleavage kobs at 2500 uM GlcN6P (glucosamine-6-phosphate [5]): 0.000582 ± 6.3e-05 s⁻¹
self-cleavage kobs at 10000 uM GlcN6P (glucosamine-6-phosphate [6]): 0.000687 ± 9.4e-05 s⁻¹

AUAAAAGCGCCAGAACUACAGAAAUGUAGUUGACGAGGAGGAGGUUUAUGGAAUUUUCGGCGGAUGCCUCCAAA
kcat (glucosamine-6-phosphate [1]): 0.000456 ± 6.7e-05 s⁻¹
KM (glucosamine-6-phosphate [2]): 90.7 ± 38 µM
self-cleavage kobs at 40 uM GlcN6P (glucosamine-6-phosphate [7]): 0.000121 ± 1.5e-05 s⁻¹
self-cleavage kobs at 160 uM GlcN6P (glucosamine-6-phosphate [3]): 0.000444 ± 4.8e-05 s⁻¹
self-cleavage kobs at 640 uM GlcN6P (glucosamine-6-phosphate [4]): 0.000443 ± 4.5e-05 s⁻¹
self-cleavage kobs at 2500 uM GlcN6P (glucosamine-6-phosphate [5]): 0.000399 ± 4e-05 s⁻¹
self-cleavage kobs at 10000 uM GlcN6P (glucosamine-6-phosphate [6]): 0.000408 ± 5.8e-05 s⁻¹

AUAAAAGCGCCAGAACUACAGAAAUGUAGUUGACGAGGAGGAGGUUUAUAGAAUUUUCGGCGGAUGCCUCCAAA
kcat (glucosamine-6-phosphate [1]): 2.67e-05 ± 8.3e-07 s⁻¹
KM (glucosamine-6-phosphate [2]): 579 ± 130 µM
self-cleavage kobs at 640 uM GlcN6P (glucosamine-6-phosphate [4]): 1.25e-05 ± 3.1e-06 s⁻¹
self-cleavage kobs at 2500 uM GlcN6P (glucosamine-6-phosphate [5]): 2.31e-05 ± 2.1e-06 s⁻¹
self-cleavage kobs at 10000 uM GlcN6P (glucosamine-6-phosphate [6]): 2.49e-05 ± 1.3e-06 s⁻¹

AUAAAAGCGCCAGAACUACAGAAAUGUAGUUGACGAGGAGGAGGUUUAUAGAAUUUUCGGCGGAUGACUCCAAA
kcat (glucosamine-6-phosphate [1]): 2.1e-05 ± 4.7e-06 s⁻¹

AUAAAAGCGCCAGAACUACAGAAAUGUAGUUGACGAGGAGGAGGUUUAUGGAAUUUUCGGCGGAUGCCUGCAAA
kcat (glucosamine-6-phosphate [1]): 0.000103 ± 1.8e-05 s⁻¹
self-cleavage kobs at 40 uM GlcN6P (glucosamine-6-phosphate [7]): 7.4e-05 ± 7.4e-06 s⁻¹
self-cleavage kobs at 160 uM GlcN6P (glucosamine-6-phosphate [3]): 0.000142 ± 9.9e-06 s⁻¹
self-cleavage kobs at 640 uM GlcN6P (glucosamine-6-phosphate [4]): 0.000112 ± 1.2e-05 s⁻¹
self-cleavage kobs at 2500 uM GlcN6P (glucosamine-6-phosphate [5]): 9.3e-05 ± 1e-05 s⁻¹
self-cleavage kobs at 10000 uM GlcN6P (glucosamine-6-phosphate [6]): 8.05e-05 ± 8.7e-06 s⁻¹

AUAAAAGCGCCAGAACUACAGAAAUGUAGUUGACGAGGAGGAGGUUUAGCGAAUUUUCGGCGGAUGCCUCUAAA
kcat (glucosamine-6-phosphate [1]): 0.00102 ± 0.00022 s⁻¹
KM (glucosamine-6-phosphate [2]): 2160 ± 970 µM
self-cleavage kobs at 40 uM GlcN6P (glucosamine-6-phosphate [7]): 3.07e-05 ± 9.2e-06 s⁻¹
self-cleavage kobs at 640 uM GlcN6P (glucosamine-6-phosphate [4]): 0.000246 ± 2.9e-05 s⁻¹
self-cleavage kobs at 2500 uM GlcN6P (glucosamine-6-phosphate [5]): 0.00041 ± 6.9e-05 s⁻¹
self-cleavage kobs at 10000 uM GlcN6P (glucosamine-6-phosphate [6]): 0.000902 ± 7.8e-05 s⁻¹

AUAAAAGCGCCAGAACUACAGAAAUGUAGUUGACGAGGAGGAGGUUUAUAGAAUUUUCGGCGGAUGCGUCCAAA
kcat (glucosamine-6-phosphate [1]): 5.05e-05 ± 1.7e-05 s⁻¹
self-cleavage kobs at 40 uM GlcN6P (glucosamine-6-phosphate [7]): 2.54e-05 ± 1e-05 s⁻¹
self-cleavage kobs at 160 uM GlcN6P (glucosamine-6-phosphate [3]): 6.35e-05 ± 1.2e-05 s⁻¹
self-cleavage kobs at 640 uM GlcN6P (glucosamine-6-phosphate [4]): 8.11e-05 ± 1.6e-05 s⁻¹
self-cleavage kobs at 2500 uM GlcN6P (glucosamine-6-phosphate [5]): 5.89e-05 ± 1e-05 s⁻¹

AUAAAAGCGCCAGAACUACAGAAAUGUAGUUGACGAGGAGGAGGUUUAUAGAAUUUUCGGCGGAUGCUUCCAAA
kcat (glucosamine-6-phosphate [1]): 1.77e-05 ± 3.7e-06 s⁻¹

AUAAAAGCGCCAGAACUACAGAAAUGUAGUUGACGAGGAGGAGGUUUAUAGAAUUUUCGGCGGAUGCAUCCAAA
kcat (glucosamine-6-phosphate [1]): 3.68e-05 ± 1.1e-05 s⁻¹
self-cleavage kobs at 160 uM GlcN6P (glucosamine-6-phosphate [3]): 3.75e-05 ± 1.4e-05 s⁻¹
self-cleavage kobs at 2500 uM GlcN6P (glucosamine-6-phosphate [5]): 4.65e-05 ± 1.7e-05 s⁻¹

AUAAAAGCGCCAGAACUACAGAAAUGUAGUUGACGAGGAGGAGGUUUAUGGAAUUUUCGGCGGAUGCCUCUAAA
kcat (glucosamine-6-phosphate [1]): 0.000123 ± 2.1e-05 s⁻¹
self-cleavage kobs at 40 uM GlcN6P (glucosamine-6-phosphate [7]): 6.9e-05 ± 9.9e-06 s⁻¹
self-cleavage kobs at 160 uM GlcN6P (glucosamine-6-phosphate [3]): 0.000107 ± 1e-05 s⁻¹
self-cleavage kobs at 640 uM GlcN6P (glucosamine-6-phosphate [4]): 0.000194 ± 2.7e-05 s⁻¹
self-cleavage kobs at 2500 uM GlcN6P (glucosamine-6-phosphate [5]): 0.000103 ± 1.3e-05 s⁻¹

AUAAAAGCGCCAGAACUACAGAAAUGUAGUUGACGAGGAGGAGGUUUAGCGAAUUUUCGGCGGAAGCCUCCAAA
kcat (glucosamine-6-phosphate [1]): 2.22e-05 ± 4.5e-06 s⁻¹
self-cleavage kobs at 160 uM GlcN6P (glucosamine-6-phosphate [3]): < 1e-05 s⁻¹

AUAAAAGCGCCAGAACUACAGAAAUGUAGUUGACGAGGAGGAGGUUUAGCGAAUUUUCGGCGGAGGCCUCCAAA
kcat (glucosamine-6-phosphate [1]): 0.0002 ± 2.3e-05 s⁻¹
KM (glucosamine-6-phosphate [2]): 6050 ± 1500 µM
self-cleavage kobs at 2500 uM GlcN6P (glucosamine-6-phosphate [5]): 6.08e-05 ± 1.7e-05 s⁻¹
self-cleavage kobs at 10000 uM GlcN6P (glucosamine-6-phosphate [6]): 0.000124 ± 1.8e-05 s⁻¹

AUAAAAGCGCCAGAACUACAGAAAUGUAGUUGACGAGGAGGAGGUUUAUAGAAUUUUCAGCGGAUGCCUCCAAA
kcat (glucosamine-6-phosphate [1]): < 1e-05 s⁻¹
self-cleavage kobs at 640 uM GlcN6P (glucosamine-6-phosphate [4]): < 1e-05 s⁻¹

AUAAAAGCGCCAGAACUACAGAAAUGUAGUUGACGAGGAGGAGGUUUAUAGAAUUUUCGGCUGAUGCCUCCAAA
kcat (glucosamine-6-phosphate [1]): < 1e-05 s⁻¹
self-cleavage kobs at 40 uM GlcN6P (glucosamine-6-phosphate [7]): < 1e-05 s⁻¹
self-cleavage kobs at 10000 uM GlcN6P (glucosamine-6-phosphate [6]): < 1e-05 s⁻¹

AUAAAAGCGCCAGAACUACAGAAAUGUAGUUGACGAGGAGGAGGUUUAUAGAAUUUUCGGCGGAUCUCUCCAAA
kcat (glucosamine-6-phosphate [1]): 1.02e-05 ± 2.9e-06 s⁻¹

AUAAAAGCGCCAGAACUACAGAAAUGUAGUUGACGAGGAGGAGGUUUAUAGAAUUUUCGGUGGAUGCCUCCAAA
kcat (glucosamine-6-phosphate [1]): < 1e-05 s⁻¹
self-cleavage kobs at 640 uM GlcN6P (glucosamine-6-phosphate [4]): < 1e-05 s⁻¹

AUAAAAGCGCCAGAACUACAGAAAUGUAGUUGACGAGGAGGAGGUUUAGCGAAUUAUCGGCGGAUGCCUCCAAA
kcat (glucosamine-6-phosphate [1]): 0.000478 ± 0.00021 s⁻¹
self-cleavage kobs at 640 uM GlcN6P (glucosamine-6-phosphate [4]): 0.000105 ± 1.9e-05 s⁻¹
self-cleavage kobs at 2500 uM GlcN6P (glucosamine-6-phosphate [5]): 0.000173 ± 4.1e-05 s⁻¹
self-cleavage kobs at 10000 uM GlcN6P (glucosamine-6-phosphate [6]): 0.000466 ± 9.5e-05 s⁻¹

AUAAAAGCGCCAGAACUACAGAAAUGUAGUUGACGAGGAGGAGGUUUAGCGAAUUCUCGGCGGAUGCCUCCAAA
kcat (glucosamine-6-phosphate [1]): 0.000112 ± 1.1e-05 s⁻¹
self-cleavage kobs at 640 uM GlcN6P (glucosamine-6-phosphate [4]): 7.28e-05 ± 2.5e-05 s⁻¹
self-cleavage kobs at 2500 uM GlcN6P (glucosamine-6-phosphate [5]): 0.000127 ± 2.5e-05 s⁻¹
self-cleavage kobs at 10000 uM GlcN6P (glucosamine-6-phosphate [6]): 0.000103 ± 1.2e-05 s⁻¹

AUAAAAGCGCCAGAACUACAGAAAUGUAGUUGACGAGGAGGAGGUUUAUAGAAGUUUCGGCGGAUGCCUCCAAA
kcat (glucosamine-6-phosphate [1]): 2.18e-05 ± 1.9e-06 s⁻¹

AUAAAAGCGCCAGAACUACAGAAAUGUAGUUGACGAGGAGGAGGUUUAUAGAAUUUUCGGCGGAUGCCUCGAAA
kcat (glucosamine-6-phosphate [1]): 1.89e-05 ± 5.7e-06 s⁻¹

AUAAAAGCGCCAGAACUACAGAAAUGUAGUUGACGAGGAGGAGGUUUAUAGAAUUUUCGGCGGAUGCCUCAAAA
kcat (glucosamine-6-phosphate [1]): 1.53e-05 ± 3.9e-06 s⁻¹

AUAAAAGCGCCAGAACUACAGAAAUGUAGUUGACGAGGAGGAGGUUUAUAGAAUGUUCGGCGGAUGCCUCCAAA
kcat (glucosamine-6-phosphate [1]): 2.27e-05 ± 2.2e-06 s⁻¹

AUAAAAGCGCCAGAACUACAGAAAUGUAGUUGACGAGGAGGAGGUUUAGCGAAUUUUCGGCGGAUGCCGCCAAA
kcat (glucosamine-6-phosphate [1]): 6.03e-05 ± 2.8e-05 s⁻¹
self-cleavage kobs at 640 uM GlcN6P (glucosamine-6-phosphate [4]): 9.69e-05 ± 3.4e-05 s⁻¹
self-cleavage kobs at 2500 uM GlcN6P (glucosamine-6-phosphate [5]): 9.67e-05 ± 2.8e-05 s⁻¹

AUAAAAGCGCCAGAACUACAGAAAUGUAGUUGACGAGGAGGAGGUUUAGCGAAUUUUCGGCGGAUGCCACCAAA
kcat (glucosamine-6-phosphate [1]): 4.14e-05 ± 1.7e-05 s⁻¹
self-cleavage kobs at 2500 uM GlcN6P (glucosamine-6-phosphate [5]): 8.22e-05 ± 2.2e-05 s⁻¹

AUAAAAGCGCCAGAACUACAGAAAUGUAGUUGACGAGGAGGAGGUUUAUAGAAUUUUCGGCGGGUGCCUCCAAA
kcat (glucosamine-6-phosphate [1]): 1.03e-05 ± 2.3e-07 s⁻¹
KM (glucosamine-6-phosphate [2]): 106 ± 36 µM
